The results in this text go back to patent US20140018288A1, “X-DING-CD4 Peptide” (priority 2012, published 2014).

Series [1] is described as follows: Acute toxicity after intraperitoneal injection in mice. The format is in vivo, mice (B6/SJL). As to conditions: 1-50 μg rX-DING-CD4^pep or 50 μg nX-DING-CD4, 7 days. As for the experimental part: In the animal tests, eight-week old wild-type mice (B6/SJL) with both genders in each test group were injected intraperitoneally with 1-50 μg of rX-DING-CD4^pep or 50 μg nX-DING-CD4. The nX-DING-CD4 refers to the native form of X-DING-CD4 protein that was purified through IXC chromatography from the extracellular compartment of HIV-1 resistant T-cells. The rX-DING-CD4^pep refers to therapeutic X-DING-CD4 peptide that was expressed in E. coli and purified through Ni-affinity column. Toxicity was assessed by obvious symptoms including diarrhea, ruffled fur, abnormal gait, or loss of more than 10% weight. Animals were weighted before injection and then observed every hour for the first 10 hours after injection; then animals were weighted on 1, 3, 4 and 7 days after X-DING-CD4 administration. […] In its highest administered dose (50 μg—corresponding to 2 μg/G) we exceeded therapeutic dose blocking 95% of HIV promoter activity (by RSA assays) and 90% virus replication (by MAGI assays) (See FIGS. 2 & 3 in Example 2).

The subject of a further series is X-DING-CD4 mRNA. Description: Induction of X-DING-CD4 mRNA expression in 1G5 cells (qRT-PCR). The class given is cell-based. To be noted: 6 hours, 200 ng/ml. As for the experimental part: The sX-DING-CD4 may be released from the macropinosome to endoplasmic reticulum (ER) and cause induction of IFNα, which in turn induces the expression of X-DING-CD4 mRNA and endogenous X-DING-CD4 protein (step 2). The induction of X-DING-CD4 mRNA by sX-DING-CD4 was tested in 1G5 cells. Briefly, three groups of 1G5 cells were treated for 6 hours with NL4-3 HIV-1 at MOI of 0.1, 200 ng/ml native X-DING-CD4 protein, and 1-126 rX-DING-CD4 peptide (i.e., rX-DING-CD4^pep), respectively. […] The eX-DING-CD4, derived from the newly synthesized X-DING-CD4, binds CN and is transported into the nucleus where it blocks LTR transcription (steps 2-7).
Two peptide fragments from the N-terminal region of X-DING-CD4 were synthesized and their activities in inducing IFN-α and X-DING-CD4 mRNA expressions were determined by qRT-PCR. The concentration of proteins used in the assays was 200 ng/ml except for the combination of XD-1 and XD-4 where we used 100 ng/ml of each peptide. The 1-126 rX-DING-CD4 and peptide C3 p16 served as positive and negative controls, respectively. The C3 Peptide P16 was derived from the C3d component of serum complement. C3 Peptide P16 regulates B cells, but not T cells, through interacting with the gp140 C3d receptor (CR2).
In general terms: In qPCR the cycle at which signal appears reflects the starting amount.

The test system of series [2] is NL4-3 HIV-1 isolate. As to the kind of experiment: HIV-1 infection inhibition assay in human PBLs, intracellular p24 core antigen ELISA. The format is cell-based. To be noted: 1 μg/ml protein, seven days after infection. As for the experimental part:
In addition, we measured the inhibitory activities of these four proteins in HIV-1-infected peripheral blood lymphocytes (PBLs). The cells are treated separately with the proteins and the replication of virus was measured five and seven days later by assessing the intracellular levels of p24 core protein. PBLs were obtained by elutriation from the whole blood of healthy, HIV-1 negative volunteers. Before the experiment, cells were stimulated for 2 days in Dulbecco's modified Eagle medium (DMEM) supplemented with 10% fetal bovine serum (FBS), phytohemaglutinin (PHA, 5 μg/ml; Sigma), interleukin 2 (10 U/ml; R&D Systems), antibiotics and glutamate. Subsequently, cells were cultured without PHA. Briefly, 3×10^6 PBLs/well in a 24-well plate (Costar Scientific) were cultured in 1 ml RPMI medium supplemented with antibiotics, glutamate and 1 μg/ml of each protein, respectively. Six hours after the initial exposure to the protein treatments, the culture medium was supplemented with 3%/Vol FBS. […] Replication of virus was evaluated at five and seven days after infection by Elisa assay of the intracellular HIV-1 p24 core antigen (Perkin Elmer). The viability of cells was assessed by the dye exclusion method (Strober, 2001) at 1, 2, 3, 5 and 7 days after protein treatments.
For orientation: An ELISA detects its analyte on a solid surface through an enzyme-linked reagent.

The next series has as its system HIV-1 LTR promoter. Description: Rapid Suppression Assay (RSA), PMA-induced HIV-1 LTR-driven luciferase in 1G5 cells. The class given is cell-based. To be noted: DING family proteins. The source says:
We applied the cell based Rapid Suppression Assay (RSA) for testing X-DING-CD4-induced inhibition of HIV-1 LTR promoter (Lesner et al., 2004; Lesner et al., 2005). Briefly, 1 G5 cells (obtained through the NIH AIDS Research and Reagent Program, Division of AIDS, NIAID, NIH) that are stably transfected with an inducible luciferase gene driven by HIV-1 LTR (Aguilar-Cordova et al., 1994) were washed in PBS, resuspended in hybridoma medium to concentration of 5×10^6cells/ml. For purpose of generating control titration curves, 100 μl aliquots of 1G5 cells were mixed with 100 μl cell culture medium either supplemented with various amount of rX-DING-CD4^pep (SEQ ID No: 1) or no rX-DING-CD4^pep, and incubated for three hours at 37° C. Subsequently, all cells were induced with phorbol 12-myristate 13-acetate (PMA) at a concentration of 5 ng/ml. Two control tubes containing 1G5 cells without rX-DING-CD4^pep treatment were resuspended in hybridoma medium with or without PMA. Three hours later cells were collected by centrifugation and lysed in the same tubes using Reporter Lysis buffer (Promega). The expression levels of luciferase protein in the lysates were determined according to the manufacturer's protocol. The X-DING-CD4^pep inhibition values were established based on the formula: [(LUC1-LUC0)×100/Z]−100; where LUC1 is the value obtained from cells induced by PMA and treated with a specific dilution of X-DING-CD4^pep; and LUC0 is the basal value obtained from the uninduced and untreated cells; Z is the absolute luciferase induction by PMA calculated as Z=LUCmax-LUCO3 where LUCmax is the value of 100% luciferase expression in PMA induced X-DING-CD4^pep untreated cells.
One aspect of the present invention is related to X-DING-CD4 peptide derivatives. Here we obtained 15 derivatives SED ID NOS: 1-15 by recombination or in vitro synthesis. We tested the biological activity of some these derivatives by rapid suppression assay (RSA). In XD-4M, the third amino acid glycine in the native X-DING-CD4 peptide was substituted with the polar amino acid glutamine. In XD-7, the two amino acids, cysteine and valine, replaced the three amino acids, glycine, serine and aspartic acid, in the native X-DING-CD4 peptide. In XD-12 and XD-12sh, the 69th amino acid glutamic acid in the native X-DING-CD4 peptide was methylated. In XD-9, the 69th amino acid glutamic acid in the native X-DING-CD4 peptide was substituted with the amino acid glutamine. The RSA procedure was similar to that described in Example 2. The inhibitory values are plotted in FIG. 5.
We performed the rapid suppression assay (RSA) which tests directly the inhibition of HIV-1 transcription (similar to the procedure described in Example 2), the MAGI assay which tests the inhibition of HIV-1 replication in a single cycle infection (similar to the procedure described in Example 2), and the HIV-1 infection inhibition assay in human PBLs.

Series [3] has as its system NL4-3 HIV-1 isolate. Description: MAGI assay of HIV-1 replication in MAGI-CCR-5 cells. To be noted: DING family proteins, FIG. 16B. The class given is cell-based. As for the experimental part: The antiviral activity of rX-DING-CD4^pep was tested by MAGI assay. […] Subsequently, cells were exposed to rX-DING-CD4^pep treatment in the presence of DMEM supplemented with 5% fetal bovine serum, antibiotics, glutamate and […] DEAE dextran. […] Replication of virus was evaluated forty eight hours later after fixation of cells with 1% formaldehyde and 0.2% glutaraldehyde in PBS. Expression of β-galactosidase was visualized by 50 min exposure to X-GAL (5-bromo-4-chloro-3-indolyl-β-D-galactopyranoside), 0.4 mg/ml 2 mM MgCl2, 4 mM potassium ferricyanide at 37° C. After enumeration of the infected (blue) cells, all cells were lysed and subjected to the protein assay (Bio-Rad). All data were adjusted by total protein concentration and anti-viral activity was calculated as percent inhibition. The infected untreated and uninfected cells served as (+) and (−) controls to calculate 100% virus infectivity. The inhibition values for HIV-1 replication were calculated based on the formula [(R1−R0)×100/Z]-100; where R1 is the value obtained from cells infected by HIV-1 and treated with specific dilution of X-DING-CD4^pep and R^0 is the basal value obtained from the uninfected and untreated cells; Z is the absolute HIV-1 replication value calculated as Z═Rmax−R0, where Rmax is the value representing 100% of HIV-1 replication in X-DING-CD4^pep untreated cells.

B1: X-DING-CD4: native form of X-DING-CD4 protein purified from the extracellular compartment of HIV-1 resistant T-cells, about 40 kDa (protein, listed as Homo sapiens)
chain: MADINGGGATLPQPLYQTSGVLTAGFAPYIGVGSGKGKLAFLNNDYSQFGTGTKNVHWAGSDSKLTSTELSTYASTKQAAWGKLIQVPSVATSVAIPFNKAGSNAVDLSVDQLCGVFSGRITTWNQLPATGRTGNIVVVYRNEASGTTELFTRFLTAKCVNESKKFVVTTNFADSFGVPAGAVPAVTSQGVMTKLNAGDGRITYMSPDYAAPTLAGLDDATKVAKVAGVSPAPDNVSAAIAAVPVPAAANVALQNAWVPVFAAAADANDPSVVPYPSTGFPILGFTNLIFSQ
Turning to B1, in series [1], the “obvious symptoms of toxicity (diarrhea, ruffled fur, abnormal gait)” value is “Neither of rX-DING-CD4^pep treatment nor nX-DING-CD4 treatment caused any obvious symptoms”. Also, the “expression of X-DING-CD4 mRNA” value in the series with X-DING-CD4 mRNA is “induced expression of X-DING-CD4 mRNA”. The “reduction of HIV-1 replication (p24)” value with NL4-3 HIV-1 isolate [2] was “about 11 fold”. Moreover, the “IC50 RSA” value with HIV-1 LTR promoter was 0.052 µg/mL. Also, the “HIV-1 LTR IC50” value with HIV-1 LTR promoter (RSA, FIG. 16A) came to 0.052 µg/mL. Besides, the “IC50, HIV-1 replication (MAGI)” value with NL4-3 HIV-1 isolate [3] turned out to be 0.075 µg/mL.
